assay: yeast display, Sf9 membrane polyspecificity reagent, FACS + sequencing; frameworks hold sequencing errors
In short: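 Synthetic nanobody libraries on Saccharomyces cerevisiae BJ5465 were galactose-induced for 36–48 hours, stained 1 hour at 4 °C with 10% biotinylated, detergent-solubilized Sf9 membrane reagent and enriched on streptavidin microbeads. FACS then separated cells into low and high (top ~1%) gates by anti-HA (expression) and streptavidin (reagent binding) fluorescence. Genes were colony-PCR amplified, MiSeq 2 × 250 sequenced and CDR-length filtered. A clone's polyreactivity label is that of its gate of origin.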

Sequence	polyreactivity (PSR sort gate)
QVQLVESGGGLVQAGGSLRLSCAASGSIFYPYAMGWYRQAPGKERELVAAITTGGGSTYADSVKGRFTISRDNAKNTVYLQMNSLKPEDTAVYYCNTDEYDIGSVYTLWEYDYWGQGTQVTVSS	low polyreactivity
QVQLVESGGGLVQAGGSLRLSCAASGSIFYPYAMGWYRQAPGKERELVAGISRSGASTYYADSVKGRFTISRDNAKNTVYLQMNSLKPEDTAVYYCAADDWTRNYWGQGTEVTVSS	low polyreactivity
QVQLVESGGGLVQAGGSLRLSCAASGSIFYPYAMGWYRQAPGKERELVARISSAGGTYYADSVKGRFTISRDNAKNTVYLQMNSLKPEDTAVYYCAAQARYRYYYWGQGTQVTVSS	high polyreactivity
QVQLVESGGGLVQAGGSLRLSCAASGSIFYQYAMGWYRQAPGKERELVAAISRSGGSTYYADSVKGRFTISRDNAKNTVYLQMISLKPEDTAVYYCAARAVRAAYDYWGLGTQVTVSS	low polyreactivity
QVQLVESGGGLVQAGGSLRLSCAASGSIFYQYAMGWYRQAPGKERELVARITWSSGSTYYADSVKGRFTISRDNAKNTVYLQMNSLKPEDTAVYYCNVVYTGTSYIYYYWGQGTQVTVSS	high polyreactivity
QVQLVESGGGLVQAGGSLRLSCAASGSIFYRNAMGWYRQAPGKERELGAAISWSAARTYYADSVKGRFTISRDNAKNTVYLQMNSLKPEDTAVYYCAAYQTSRYKYEYWGQGTQVTVSS	high polyreactivity
QVQLVESGGGLVQAGGSLRLSCAASGSIFYRNAMGWYRQAPGKERELVAAISARGGRTNYADSVKGRFTISRDNAKNTVYLQMNSLKPEDTAVYYCNTADSWYHRSQAYDYWGQGTQVTVSS	high polyreactivity
QVQLVESGGGLVQAGGSLRLSCAASGSIFYRNAMGWYRQAPGKERELVAAISRGGSTNYADSVKGRFTIERDNAKNTVYLQMNSLKPEDTAVYYCNALYHGDYDYWGQGTQVTVSS	high polyreactivity
QVQLVESGGGLVQAGGSLRLSCAASGSIFYRNAMGWYRQAPGKERELVAAISSDGSTNYADSVKGRFTISRDNAMNTVDLQMNSLKPEDTAVYYCAAPWTQILDYWGQGTQVTVSS	low polyreactivity
QVQLVESGGGLVQAGGSLRLSCAASGSIFYRNAMGWYRQAPGKERELVAGITWRGGRTYYADSVKGRFTISRDNAKNTVYLQMNSLKPEDTAVYYCAATYYWYGHPSRRYDYWGQGTQVTVSS	high polyreactivity
QVQLVESGGGLVQAGGSLRLSCAASGSIFYRNGMGWYRQAPGKERELVAAISGRGGSTNYADSVKGRFTISRDNAKNTVYLQMNSLKPEDTAVYYCNRYGVSNILVRGGYWGQGTQVTVSS	high polyreactivity
QVQLVESGGGLVQAGGSLRLSCAASGSIFYRNVMGWYRPAPGKERELVAVITSDGSTNYADSVKGRFTISRDNAKNTVYLQMNSLKPEVTAVYYCNAHYAFYGPGYPIYWIYEYWGQGTQVTVSS	low polyreactivity
QVQLVESGGGLVQAGGSLRLSCAASGSIFYRNVMGWYRQAPGKERELVAAISQRGGSTYYADSVKGRFTISRDKAKNTVFLQMNSLKPEDTAVYYCNAASRGAGTSIWSWYDLWGQGTQVTVSS	low polyreactivity
QVQLVESGGGLVQAGGSLRLSCAASGSIFYRNVMGWYRQAPGKERELVATISRGGTTNYADSVKGRFTISRDNAKNTVYLQMNSLKPEDTAVYYCALKQSYYFGSYFYGHEYYYWGPGTQVTVSS	low polyreactivity
QVQLVESGGGLVQAGGSLRLSCAASGSIFYRYALGWYRQAPGKERELVAALSYSGGSTYYADSVKGRFTISRDNAKNTVYLQMNSLKPQETAVYYCANDSPPPISDYSRYYGYGYWGQGTQVTVSS	low polyreactivity
QVQLVESGGGLVQAGGSLRLSCAASGSIFYRYAMGWNRQAPGKEKELVAAISRSGGRTYYADSVKGRFTISRDNAMNTVYLQMNSLKPEDTAVYYCAAESTVGTDLGGYSWGQGSQVTVSS	high polyreactivity

Sequence	polyreactivity (PSR sort gate)
QVQLVESGGGLVQAGGSLRLSCAASGSIFYRYAMGWYRQAPGKERELVAAINDSGGGTYYADSVKGRFTISRDNAKNTVYLQMNSLKPEDTAVYYCAAATHNKHTARDDYWGQGTQVTVSS	low polyreactivity
QVQLVESGGGLVQAGGSLRLSCAASGSIFYRYAMGWYRQAPGKERELVAAISTAGSTNYADSVKGRFTISRDNAKNTVYLQINSPKPEDTAVYYCAAKSYRGRTQRSYGYWGQGTQVTVSS	low polyreactivity
QVQLVESGGGLVQAGGSLRLSCAASGSIFYRYAMGWYRQAPGKERELVAGITRGGSTNYADSVKGRFTISRDNAKNTVYLQMNSLKPEDTAVYYCAARSYVYVHYYYWGQGTQVTVSS	high polyreactivity
QVQLVESGGGLVQAGGSLRLSCAASGSIFYRYAMGWYRQAPGKVRELVAAISSGSSTHYADSVKGRFTISRDNAKNTVYLQMNSLKPEDTAVYYCAARYRAYTSTRRFDYWGQGTQVTVSS	high polyreactivity
QVQLVESGGGLVQAGGSLRLSCAASGSIFYSNAMGWYRQAPGKERELVAAIRRSGGSTYYADSVKGRFTISRDNAKNTVYLQMNSLKPEDTEVYYCAARYSGTYSFYLSVGSRGYNYWGQGTQVTVSS	high polyreactivity
QVQLVESGGGLVQAGGSLRLSCAASGSIFYSNTMGWYRQAPGKERELVAAISRGGSTYYADSVKGRFTISRDNAKNTVYLQMNSLKPEDTAVYYCAARYRWAPAYDYWGQGTQVTVSS	high polyreactivity
QVQLVESGGGLVQAGGSLRLSCAASGSIFYSYAMGWYRQAHGKERELVAAITSGDITYYADSVKGRFTISRDNAKNTVYLQMNSLKPEDTAVYYCAAESYAWWDKQFLYRYDYWGQGTQVTVSS	low polyreactivity
QVQLVESGGGLVQAGGSLRLSCAASGSIFYSYAMGWYRQAPGKEREFVAAISQLGGSTYYADSVKGRFTISRDNAKNTVYLQMNSLKPEDTAVYSCNAVYRRAQFLYGYDYWGQGTQVTVSS	high polyreactivity
QVQLVESGGGLVQAGGSLRLSCAASGSIFYSYAMGWYRQAPGKERELVAAISWDASTYYADSVKGRFTISRDNAKNTVYLQMKSLKTEDTAVYYCNADIPYYFVFDAYDYWGQGTQVTVSS	low polyreactivity
QVQLVESGGGLVQAGGSLRLSCAASGSIFYSYAMGWYRQAPGKERELVAAITSNAGGITRYADSVKGRFTISRDNAKNTVYLQMNSLKPEDTAVYYCAARGHYYTRYWGQGTQVTVSS	high polyreactivity
QVQLVESGGGLVQAGGSLRLSCAASGSIFYSYAMGWYRQAPGKERELVADITITGSTYYADSVKGRFTISRDNAKNTVYLQMNSLKPEDTAVYYCTAVLAPGGYDYWGQGTQVTVSS	low polyreactivity
QVQLVESGGGLVQAGGSLRLSCAASGSIFYTNAMGWYRPAPGKERELVAAIRWSGGRTYYADSVKGRFTISRDNAKNTVYLQMNSLKPEDTAVYYCNVVVRYPSAYDYWGQGTQVTVSS	high polyreactivity
QVQLVESGGGLVQAGGSLRLSCAASGSIFYTNAMGWYRQAPGKEREFVAGITRRGTSTNYADSVKGRFTISRDKAKNTVYLQMNSQKPEDTAVYYCNARYYLYWGQGTQVTVSS	low polyreactivity
QVQLVESGGGLVQAGGSLRLSCAASGSIFYTNAMGWYRQAPGKERELVAVITASGGSTYYADSVKGRFTISRDNAKNTVYLQMNSLKPEDTSVYYCAADPVFNYDYWGQGTQVTVSS	low polyreactivity
QVQLVESGGGLVQAGGSLRLSCAASGSIFYTNVMGWYRQAPGKERELVAAISSRGGSTYYADSVKGRFTISRDNAKNTVYLQMNSLKPEDTAVYYCAARFLHYYPTRGYTYDYWGQGTQVTVSS	high polyreactivity
QVQLVESGGGLVQAGGSLRLSCAASGSIFYTYAMGWYRQAPWKEREFVAASTGTGVRTYYADSVKGRFTISRDNAKNTVYLPMNSLKPEDTAVYYCAAVSAYRWIGLTNYSTYGYWGQGTQVTVSS	high polyreactivity
